B1: KCNG1 (parent)
chain: LFVTVTAVNLSVSTLPSLREEEEQ

Variants of: B1
Experiment: protein stability index of a GFP-peptide fusion (GPS, HEK-293T) (PSI 1-6); higher = more stable
Details: c terminus: a fixed tail appended
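Also: lentivirally expressed fusions sorted by FACS into six bins by GFP to DsRed ratio, PSI derived from sequencing read proportions per bin multiplied by bin number.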

Variant | protein stability index
LFVTVTAVNLSMSTLPSLREEEEQ [V12M] | 1.47
LFVTVTAVNLSVSTLPKLREEEEQ [S17K] | 4.4
LFVTVTAVNLSVSTLPNLREEEEQ [S17N] | 1.7
LFVTVTAVNLSVSTLPSLREEEDQ [E23D] | 1.71
LFVTVDAVNLSVSTLPSLREEEEQ [T6D] | 3.21
HFVTVTAVNLSVSTLPSLREEEEQ [L1H] | 3.62
TFVTVTAVNLSVSTLPSLREEEEQ [L1T] | 2.62
LFVTVTAANLSVSTLPSLREEEEQ [V8A] | 2.02
LFVTVTAKNLSVSTLPSLREEEEQ [V8K] | 2.15
LFVTVTAVNLSVSTLPSLKEEEEQ [R19K] | 3.36
LFWTVTAVNLSVSTLPSLREEEEQ [V3W] | 1.91
LFVTVTAVNLSVSWLPSLREEEEQ [T14W] | 2.87
LFVTVTAVNLSVSMLPSLREEEEQ [T14M] | 2.01
LFVTVTAVNLSVSTLPSLREETEQ [E22T] | 2.14
LFVTVTAVNHSVSTLPSLREEEEQ [L10H] | 2.44
LFVTVTAVNFSVSTLPSLREEEEQ [L10F] | 3.38

Reference: the supplement of paper PMC10567573
